According to article PMC7112951, “Structures of the ATP-fueled ClpXP proteolytic machine bound to protein substrate” (eLife, 2020):

Target: the molecule itself
Test: cryo-EM structure; ClpX^∆N pseudohexamer 4 µM and ClpP14 1.8 µM (2 µM in the results) in EM buffer (20 mM HEPES, pH 7.5, 100 mM KCl, 25 mM MgCl2, 5 mM ATPγS), 5 min at 25°C before vitrification; doubly capped complexes analysed

B1: one ClpX^∆N E185Q subunit (unit) of the single-chain pseudohexamer (domain or fragment)
chain: not shown
notes: ClpX, E. coli K12, residues 62-424 (ClpX^∆N); In the sample the six units are joined on one chain by six-residue linkers; written alone for the contacts between neighbouring units; also called ClpX^∆N subunit; subunits A-F; source: E. coli strain ER2566, purified, as part of the single-chain pseudohexamer m1
stoichiometry N: 6
